Patent publication US20220056133A1

Tests used:
[1] = molecular target: TRBV9 family TCR on human peripheral blood T lymphocytes (human); test: FACS sorting with MA-042-FITC, then sequencing of the TCR beta-chain repertoire of the sorted cells
[2] = molecular target: human antigen (immobilised on AR2G sensors in the Octet assay of Example 2) (human); test: BLI (OctetRed 96), antigen immobilised on AR2G sensors, antibody in solution, 1:1 global model, 30 C
[3] = molecular target: TRBV9 family TCR on human peripheral blood T lymphocytes (human)
[4] = molecular target: TRBV9 family TCR on human peripheral blood T lymphocytes (human); test: cell-based or functional assay
[5] = molecular target: TRBV9 family TCR on human peripheral blood T lymphocytes (human); test: flow cytometry sorting of human peripheral blood mononuclear cells stained with MA-042-FITC, CD3-eFluor405 and CD45-PC5 at 100 ng/ml; dot plot of MA-042 against CD3

B1: antibody MA-042 (antibody, human IgG1, kappa, V domains shown)
VH: QVQLVQSGSELKKPGESVKVSCKASGYTFTDYLVHWVRQAPGQGLEWMGWINTYTGTPTYADDFEGRFVFSLDTSVSTANLQISSLKAEDTAVYFCARSWRRGLRGIGFDYWGQGTLVTVSS
VL: DIQMTQSPYSLSASVGDRVTITCKASKSINKYLAWFQQKPGKPNKLLIYDGSTLQSGVPSRFSGSGSGTDFTLTISSLEPEDFATYYCQQHNEYPPTFGQGTKLEIKR
B1 was tested, and the enrichment of the sorted fraction's TCR beta-chain libraries with TRBV9-encoded sequences [1] was 93%, the Kd [2] was less than 1 pM and the koff [2] was less than 1e-07 s⁻¹. It also gave a kon [2] of 319000 M⁻¹ s⁻¹, a share of CD3+ cells in the TRBV9+ (MA-042-FITC positive) gate after the cytotoxicity assay with 1 ng/ml MA-042 (right panel) [3] of 2% and a share of CD3+ cells in the TRBV9+ (MA-042-FITC positive) gate after the cytotoxicity assay with 1 ug/ml MA-042 (left panel) [3] of 0.3%. For the same binder, the EC50 in a cytotoxicity assay (elimination of TRBV9-positive cells among CD3+ lymphocytes, flow cytometry after 72 hours) [4] was 0.1 µg/mL, the antibody concentration at which complete elimination of the target population was detected [4] was 500 ng/mL and the MA-042+ (share of cells in the MA-042+ gate) [5] was 1.9%.
